Among the data in article PMC6431553 are EC50 values, retold here.

The target of assay [1] is recombinant murine PrP 23–231 (murine) (UniProt P04925). In words: ELISA. For orientation: An ELISA detects its analyte on a solid surface through an enzyme-linked reagent.
For assay [2] the target is unchanged. In words: ELISA. This is another data set of the same source.

pEC50: −log10 of the molar value. Read-outs that look alike come from different tables or passages of the source.

Sequence of UniProt P04925 (P04925 23-231): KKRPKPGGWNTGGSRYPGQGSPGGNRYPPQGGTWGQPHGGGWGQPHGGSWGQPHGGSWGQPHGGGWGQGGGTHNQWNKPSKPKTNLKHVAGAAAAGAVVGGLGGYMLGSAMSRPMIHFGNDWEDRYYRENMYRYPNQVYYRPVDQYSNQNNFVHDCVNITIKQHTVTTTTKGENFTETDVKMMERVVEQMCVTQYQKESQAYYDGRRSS

In the case of Aβ1–42 fibrils (peptide), the pEC50 – broadly, −log10 of the EC50, conventionally taken in molar units – in assay [1] is 5.76.

As to “Aβ-derived diffusible ligands (ADDLs), a preparation of Aβ1–42 (peptide)”, the results for the pEC50 in assay [1] and in assay [2] were 6.63 and 6.95, respectively.
